For 14 molecules, Signal/background results are on record in patent US20220017636A1 (Amgen, published 2022).

Where a chain is given by its changes, count along the chain named.

Sequences and labels used below:
B1: 18179-D7 (scFv)
scFv: EVQLLESGGGLVQPGGSLRLSCAASGFTFSNAWMSWVRQAPGKGLEWVGRIKGNTYGGTTDYAAPVKGRFTISRDDSKNTLFLQMNSLKTEDTAVYYCTTPSYSGSYYNYFSVMDVWGQGTTVTVSSGGGGSGGGGSGGGGSELVMTQSPSSLSASVGDRVTITCRTSQSISSYLNWYQQKPGRAPKLLIFAASSLQGGVPSRFSGSGSGTDFTLTISSLQPEDFATYYCQQTYSMPFTFGPGTKVDIK
notes: scFv in bacterial lysate, detected with anti-Flag M2
B2: 18181-A6 (scFv)
scFv: B1 scFv with F82Y, T167A, V246L, D247E
notes: as for B1
B3: 18179-D11 (scFv)
scFv: B1 scFv with Q13K, V145Q
notes: as for B1
B4: 18181-G8 (scFv)
scFv: B1 scFv with Y103N, R184K, F191Y, G198S, P242G, D247E
notes: as for B1
B5: 18179-B12 (scFv)
scFv: B1 scFv with Y103N, Y178F, R184K, G198S, D247E
notes: as for B1
B6: 18181-F3 (scFv)
scFv: B1 scFv with T233S, M236S, D247E
notes: as for B1
B7: 18179-H7 (scFv)
scFv: B1 scFv with G53S, N54K, F82Y, V145Q, Y178F, R184K, G198S, T233S, M236S, D247E
notes: as for B1
B8: 18179-A7 (scFv)
scFv: B1 scFv with Q13K
notes: as for B1
B9: 18179-E1 (scFv)
scFv: B1 scFv with F82Y
notes: as for B1
B10: 18181-F1 (scFv)
scFv: B1 scFv with Q13K, M236S, V246L, D247E
notes: as for B1
B11: 18093-B11 (scFv)
scFv: EVQLLESGGGLVKPGGSLRLSCAASGFTFSDYYMSWIRQAPGKGLEWVSYISKSGSTIYYADSVKGRFTISRDNAKNSLYLQMNSLRAEDTAVYYCATYNYGHFDYWGQGTLVTVSSGGGGSGGGGSGGGGSELVLTQPPSVSVAPGQTARITCGGNNIGSKSVHWYQQKPGQAPVLVVYDDSDRPSGIPERFSGSNSGNTATLTISRVEAGDEADYYCQVWDSSSDHHVVFGGGTKLTVL
notes: as for B1
B12: 18181-B8 (scFv)
scFv: EVQLLESGPGLVKPSQTLSLTCTVSGGSISSGGYYWSWIRQHPGKGLEWIGYISHSGSTYYNPSLKSRVTISVDTSKNQFSLNLTSVTAADTAVYYCAREKMWFGVLNYYYGMDVWGQGTTVTVSSGGGGSGGGGSGGGGSELVMTQTPLSLPVTPGEPASISCRSSQSLLHRNGYNYLDWYLQKPGQSPQLLIYLGSNRASGVPDRFIGSGSGTDFTLEISRVEAEDVGVYYCMQALQTPSFGQGTKVEIK
notes: as for B1
B13: 18181-G10 (scFv)
scFv: EVQLLESGPGLVKPSQTLSLTCTVSGDSISSNPYYWSWIRQLPGKGLEWIGYISYSGSTFYNPSLKSRVTISVDTSKNQFSLNLTSVTAADTAVYYCARDRLWFGVLNYYYGMDVWGLGTTVTVSSGGGGSGGGGSGGGGSELVMTQSPLSLPVTPGEPASISCRSSQSLLHSTGYNYVDWYLQKPGQSPQLLIYLGSNRASGVPDRFSGSGSGTDFTLKISRVEAEDVGFYYCMQALQTPRTFGQGTKVEIK
notes: as for B1
B14: 18181-C9 (scFv)
scFv: B13 scFv with M145L, S173R, T174N, V179L, F231V, A237G, R242F, Q246P
notes: as for B1

The first assay addresses T1, ADF peptide complexed with HLA-A*02:01 on T2 cells (human).
T1 construct: whole, on cells
Description: flow cytometry, peptide-loaded T2 cells.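 Note: binding of single-chain Fv antibody constructs, raised in XenoMouse, to peptide-pulsed T2 cells measured by flow cytometry.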
Description: (§1) Binding of pMAGE-HLA scFv constructs, generated from the XenoMouse, on peptide loaded T2 cells was evaluated by flow cytometry.
Take B1: the Signal/background turned out to be 1.
B2 returned a Signal/background of 1.
For B3, the Signal/background is 1.
As for B4, the Signal/background is 1.
Take B5: the Signal/background came out at 1.
B6: the Signal/background stood at 1.
B7 gave a Signal/background of 1.1.
In the case of B8, the Signal/background stood at 1.
For B9, the Signal/background was determined as 0.9.
In turn, B10 showed a Signal/background of 1.1.
B11 showed a Signal/background of 1.1.
B12 yielded a Signal/background of 1.
B13 had a Signal/background of 1.
Still for that read-out and setting: next, B14: 1.

For a further assay, the target named is T2, MYOF peptide complexed with HLA-A*02:01 on T2 cells (human).
T2 construct: whole, on cells
In words: flow cytometry, peptide-loaded T2 cells.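 Note: binding of single-chain Fv antibody constructs, raised in XenoMouse, to peptide-pulsed T2 cells measured by flow cytometry.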 For orientation: In flow cytometry, cells or beads pass a laser one at a time.
Description: as §1
B1: the Signal/background was 1.
As for B2, the Signal/background is 1.1.
B3 gave a Signal/background of 1.1.
Still for that read-out and setting: the figure for B4 is 1; for B5 it is 1.
Consider B6, for which the Signal/background is 1.1.
Regarding B7, the Signal/background stood at 1.1.
In turn, B8 returned a Signal/background of 1.
For the molecule B9, the Signal/background was determined as 1.
For B10, the Signal/background came out at 1.1.
Molecule B11 came in with a Signal/background of 1.2.
Same read-out and setting: the figure for B12 is 1; for B13 it is 1; for B14 it is 1.1.

The next assay concerns the target T3, SLK peptide complexed with HLA-A*02:01 on T2 cells (human).
T3 construct: whole, on cells
In words: flow cytometry, peptide-loaded T2 cells.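 Note: binding of single-chain Fv antibody constructs, raised in XenoMouse, to peptide-pulsed T2 cells measured by flow cytometry.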
Description: as §1
In turn, B1 showed a Signal/background of 1.1.
B2 gave a Signal/background of 1.1.
For B3, the Signal/background turned out to be 1.
Still for that read-out and setting: the figure for B4 is 1.
Regarding B5, the Signal/background is 1.
As for B6, the Signal/background is 1.
Take B7: the Signal/background worked out at 0.9.
Molecule B8 registered a Signal/background of 1.
Molecule B9 came in with a Signal/background of 1.1.
In the case of B10, the Signal/background was determined as 1.1.
Molecule B11 had a Signal/background of 1.1.
B12: the Signal/background was 1.
On the same count and under the same terms, next, B13: 1.1.
B14: the Signal/background came out at 1.

The next assay has as its target T4, KEA peptide complexed with HLA-A*02:01 on T2 cells (human).
T4 construct: whole, on cells
In words: flow cytometry, peptide-loaded T2 cells.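 Note: binding of single-chain Fv antibody constructs, raised in XenoMouse, to peptide-pulsed T2 cells measured by flow cytometry.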
Description: as §1
The molecule B1 yielded a Signal/background of 1.
For the molecule B2, the Signal/background turned out to be 0.9.
Turning to B3, the Signal/background is 1.
For the molecule B4, the Signal/background amounted to 0.9.
In turn, B5 came in with a Signal/background of 1.
On the same count and under the same terms, the figure for B6 is 1; for B7 it is 1; for B8 it is 0.9.
As to B9, the Signal/background was found to be 1.
The molecule B10 came in with a Signal/background of 0.9.
In turn, B11 displayed a Signal/background of 1.1.
Consider B12, for which the Signal/background came to 0.9.
Turning to B13, the Signal/background is 1.
Same read-out and setting: the figure for B14 is 0.9.

In another assay the target is T5, CNDP2 peptide complexed with HLA-A*02:01 on T2 cells (human).
T5 construct: whole, on cells; also called CNPD2
In words: flow cytometry, peptide-loaded T2 cells.
Description: as §1
B1 had a Signal/background of 1.1.
Regarding B2, the Signal/background turned out to be 1.
B3 had a Signal/background of 1.
On the same count and under the same terms, the figure for B4 is 1; for B5 it is 1; for B6 it is 1.1.
In the case of B7, the Signal/background came to 1.
Regarding B8, the Signal/background was 1.
Molecule B9 registered a Signal/background of 1.
In turn, B10 came in with a Signal/background of 1.1.
The molecule B11 showed a Signal/background of 1.
With B12, the Signal/background stood at 1.
Consider B13, for which the Signal/background came to 1.1.
Consider B14, for which the Signal/background was found to be 1.

The next assay deals with T6, MAGEB2 peptide … (SEQ ID NO: 1) complexed with HLA-A*02:01 on the cell surface (human).
T6 construct: whole, on cells; also called pMAGE-HLA; MAGEB2 pMHC
In words: flow cytometry, peptide-loaded T2 cells.
Description: as §1
Molecule B1 yielded a Signal/background of 281.
The molecule B2 had a Signal/background of 430.
The same measure, in the same setting: next, B3: 345; B4: 489.
In turn, B5 displayed a Signal/background of 368.
Molecule B6 yielded a Signal/background of 232.
The molecule B7 yielded a Signal/background of 399.
B8: the Signal/background was determined as 267.
Regarding B9, the Signal/background was determined as 419.
B10 displayed a Signal/background of 443.
For the molecule B11, the Signal/background stood at 219.
The same measure, in the same setting: the figure for B12 is 179.
As to B13, the Signal/background came to 121.
For B14, the Signal/background was 140.

The next assay addresses T7, DPYSL4 peptide complexed with HLA-A*02:01 on T2 cells (human).
T7 construct: whole, on cells
Description: flow cytometry, peptide-loaded T2 cells.
Description: as §1
For B1, the Signal/background turned out to be 1.1.
Consider B2, for which the Signal/background was determined as 1.
Still for that read-out and setting: next, B3: 1.1; B4: 1.1; B5: 1.
On the same count and under the same terms, next, B6: 1.1; B7: 1.
In the case of B8, the Signal/background was 1.
On to B9, for which the Signal/background stood at 1.
For B10, the Signal/background amounted to 1.1.
In turn, B11 registered a Signal/background of 1.
Take B12: the Signal/background stood at 1.
For B13, the Signal/background came out at 1.
Consider B14, for which the Signal/background was 0.9.

For a further assay, the target named is T8, COX14 peptide complexed with HLA-A*02:01 on T2 cells (human).
T8 construct: whole, on cells
Description: flow cytometry, peptide-loaded T2 cells.
Description: as §1
Turning to B1, the Signal/background was determined as 1.
On to B2, for which the Signal/background worked out at 0.9.
As to B3, the Signal/background was 1.
In turn, B4 returned a Signal/background of 1.
On the same count and under the same terms, the figure for B5 is 1.
Turning to B6, the Signal/background turned out to be 0.9.
In turn, B7 returned a Signal/background of 1.
The molecule B8 registered a Signal/background of 1.
The molecule B9 gave a Signal/background of 0.9.
In turn, B10 gave a Signal/background of 1.1.
B11 returned a Signal/background of 1.2.
Same read-out and setting: the figure for B12 is 0.9.
In turn, B13 registered a Signal/background of 1.
For the molecule B14, the Signal/background is 0.9.

The target in a further assay is T9, STXBP5 peptide complexed with HLA-A*02:01 on T2 cells (human).
T9 construct: whole, on cells
In words: flow cytometry, peptide-loaded T2 cells.
Description: as §1
B1 gave a Signal/background of 1.
With B2, the Signal/background was found to be 1.
Regarding B3, the Signal/background turned out to be 1.
Same read-out and setting: the figure for B4 is 1.
Consider B5, for which the Signal/background was 1.
B6 showed a Signal/background of 1.2.
Still for that read-out and setting: the figure for B7 is 1.
Still for that read-out and setting: next, B8: 1.
On the same count and under the same terms, next, B9: 1.
For B10, the Signal/background worked out at 1.
In turn, B11 yielded a Signal/background of 1.1.
The molecule B12 showed a Signal/background of 0.9.
In turn, B13 gave a Signal/background of 1.
With B14, the Signal/background was 1.1.

For the next assay, the target named is T10, MB peptide complexed with HLA-A*02:01 on T2 cells (human).
T10 construct: whole, on cells
In words: flow cytometry, peptide-loaded T2 cells.
Description: as §1
On to B1, for which the Signal/background amounted to 1.
In turn, B2 had a Signal/background of 1.
Regarding B3, the Signal/background turned out to be 1.
Molecule B4 yielded a Signal/background of 0.9.
For B5, the Signal/background was determined as 1.
B6 returned a Signal/background of 0.9.
For B7, the Signal/background was 1.
For B8, the Signal/background came to 1.1.
Molecule B9 showed a Signal/background of 1.
In turn, B10 gave a Signal/background of 1.
Take B11: the Signal/background was determined as 1.2.
Turning to B12, the Signal/background was found to be 0.9.
B13 yielded a Signal/background of 1.
Still for that read-out and setting: the figure for B14 is 1.
